Measured values as given in paper doi:10.1101/2022.06.01.494398.

Molecular target: CERTL (long isoform of the ceramide transport protein CERT; GPBP, COL4A3BP) (UniProt Q9Y5P4)
Test: SEC-MALS of self-association
Conditions: reference: hyperphosphorylated wild-type StrepII-CERTL (CERTLP); sites S132

CERTL (long isoform of the ceramide transport protein CERT; GPBP, COL4A3BP), sequence (Q9Y5P4 whole entry S132A, canonical isoform): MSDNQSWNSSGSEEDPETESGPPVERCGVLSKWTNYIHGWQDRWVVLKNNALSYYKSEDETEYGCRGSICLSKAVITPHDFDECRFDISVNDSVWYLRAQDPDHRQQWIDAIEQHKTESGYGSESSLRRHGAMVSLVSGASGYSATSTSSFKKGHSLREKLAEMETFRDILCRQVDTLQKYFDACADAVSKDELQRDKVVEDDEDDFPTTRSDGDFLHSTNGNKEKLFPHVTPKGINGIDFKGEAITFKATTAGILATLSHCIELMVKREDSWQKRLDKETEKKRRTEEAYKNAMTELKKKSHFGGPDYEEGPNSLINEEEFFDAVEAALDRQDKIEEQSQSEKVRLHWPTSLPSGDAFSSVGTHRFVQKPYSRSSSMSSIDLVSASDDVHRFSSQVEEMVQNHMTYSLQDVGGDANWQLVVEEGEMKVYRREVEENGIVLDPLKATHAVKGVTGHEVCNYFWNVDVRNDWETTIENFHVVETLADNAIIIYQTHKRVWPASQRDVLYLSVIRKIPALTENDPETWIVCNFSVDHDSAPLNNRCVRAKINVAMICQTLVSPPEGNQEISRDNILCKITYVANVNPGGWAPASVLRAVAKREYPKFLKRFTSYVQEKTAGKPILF

CERTL (long isoform of the ceramide transport protein CERT; GPBP, COL4A3BP) (from UniProt Q9Y5P4) StrepII-CERTL S132A (hypophosphorylated)
other: observed mass (expected trimer 215.7): same; reference 184.3
